experiment: yeast display, Sf9 membrane polyspecificity reagent, FACS + sequencing; frameworks hold sequencing errors
Summary of the method: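 Synthetic nanobody libraries on Saccharomyces cerevisiae BJ5465 were galactose-induced for 36–48 hours, stained 1 hour at 4 °C with 10% biotinylated, detergent-solubilized Sf9 membrane reagent and enriched on streptavidin microbeads. FACS then separated cells into low and high (top ~1%) gates by anti-HA (expression) and streptavidin (reagent binding) fluorescence. Genes were colony-PCR amplified, MiSeq 2 × 250 sequenced and CDR-length filtered. A clone's polyreactivity label is that of its gate of origin.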

Sequence | polyreactivity (PSR sort gate)
QVQLVESGGGLVQAGGSLRLSCAASGFILYVNAMGWYRQAPGKERELVAGITSSGTSTYADSVKGRFTISRDNAKNTVYLQMNSLKPEDTAVYYCAALRRPYGARDYDYWGQGTQVTVSS | low polyreactivity
QVQLVESGGGLVQAGGSLRLSCAASGFILYYYAKGWYRPAPGKERELVAAISWSGDSTYYADSVKGRFTISRDNAKNTVYLQMNSLKPEDTAVYYCAATWQLTHRYYWGQGTQVTVSS | low polyreactivity
QVQLVESGGGLVQAGGSLRLSCAASGFISAYYALGWSRQAPGKERELVAGITRGGNTYYADSVKGRFTISRDNAKNTVYLQMNSLKPEDTAVYYCAAEGSHNSEYWGQVTQVTVSS | high polyreactivity
QVQLVESGGGLVQAGGSLRLSCAASGFISDVYAMGWSRQAPGKEREWVAVITWRGSTYYADSVKGRFTISRDNAKYTVYLQMNSLKPEDTAVYYCAAESQGDWAFDYWGQGTQVTVSS | low polyreactivity
QVQLVESGGGLVQAGGSLRLSCAASGFISDVYAMGWYRQAPGKERELVAVITWRGSTYYADSVKGRFTISRDNAKNTVYLQMNSLKPEDTAFYYCAAESQGDWAFDYWGQGTQVTVSS | low polyreactivity
QVQLVESGGGLVQAGGSLRLSCAASGFISDWYAMGWYRQAPGKERELVATIDWIGGSTYADSVKGRFTISRDNAKNTVYLQMNSLKPEDTAVYYCAADSYFIAWYGAHYAYDYWRQGTQVTVSS | low polyreactivity
QVQLVESGGGLVQAGGSLRLSCAASGFISGYYTMRWYRQAPGKARELVAVINSGGSTYYADSVKGRFTISRDNAKNTVYLQMNSLKPEDTAVYYCAKLGGKYSRYYYWGQGTQVTVSS | low polyreactivity
QVQLVESGGGLVQAGGSLRLSCAASGFISHYYAMGWYRQAPGKERELVAAIRISGDRTYYADSVKGRFTISRDNAKNTVYLQMNSLKPEDTAVYYCNAVWEYYGKSDYWGQGTQVTVSS | low polyreactivity
QVQLVESGGGLVQAGGSLRLSCAASGFISTYYAMGWYRQAPGKERELVAAISWNGGSTYYADSVKGRFTISRDNAKNTVYLQMNSLKPEDTAVYYCAAYLGKWRHFYSSDYDYWGQGTQVTVSS | low polyreactivity
QVQLVESGGGLVQAGGSLRLSCAASGFIVDYYAMGWYREAPGKERELVAAIDDSAGSTYYADSVKGRFTISRDNAKNTVYLQMNSLKPEDTAVYYCAADIYVEYDYWGQGTQVTVSS | low polyreactivity
QVQLVESGGGLVQAGGSLRLSCAASGFLFPKNAMGWSRQAPGTEMEWVAAISSGGARTYYADSVKGRFTISRDNAQNSVYEQMNSLKPEDTAVYYCAARTSPFWRGGGLDYWGQGTQVTVSS | high polyreactivity
QVQLVESGGGLVQAGGSLRLSCAASGFLPNAMGWYRQAPGKERELVAAISSRGGSTYYADSVKGRFTISRDNAKNTVYLQMISLKPEDTAVYYCAATYYGRDGYRYDYWGQGTQVTVSS | high polyreactivity
QVQLVESGGGLVQAGGSLRLSCAASGFNFDGNAMGWYRQEPGKEMELVARITWDDGSTYYADSVKGRFTISRDNAKNTVYLQMNSLKPEDTAVYYCNTDYGEYYSLDLLWWYIPYDYWGQGTQVTVSS | low polyreactivity
QVQLVESGGGLVQAGGSLRLSCAASGFNFEENAMGWYRQAPGKERELVAAINWSGGNTYYADSVKGRFTISRDNAKNTVYLQMNSLKPEDTAVYYCAAEYRSWSWRMDYWGQGTQVTVSS | high polyreactivity
QVQLVESGGGLVQAGGSLRLSCAASGFNFGYNALGRYRQAPGKEREMVAAISSGGSTYYADSVKGRFTISRDNAKNTVYLQMNSLQPEDTAVYYCAVELGYPIQSYALWWDFEYWGQGTQVTGSS | low polyreactivity
QVQLVESGGGLVQAGGSLRLSCAASGFNFRKYAMGWYRQAPGKERELVASITSGGGSTYYADSVKGRFTISRDNAKNTVYLQMNSLKPEDTAVYYCAAVAYTGGPRKLGFNYWGQGTQVTVSS | high polyreactivity
QVQLVESGGGLVQAGGSLRLSCAASGFNFVGNAMGWYRQAPGKERELVADITGSDGSTYYADSVKGRFTISRDNAKNTVYLQMNSLKPEDTAVYYCAASPPYKLVWWRRMDYWGQGTQVTVSS | low polyreactivity

Reference: the nanobody polyreactivity screen of Harvey et al. (2022)
